Test results from patent publication US20230094463A1, “ANTIBODIES THAT DISRUPT THE INTERACTION OF GAL3 AND INSULIN RECEPTOR OR INTEGRINS AND METHODS OF USE THEREOF” (TrueBinding, Inc., priority 2019, published 2023).
Changes are numbered by the printed parent chain. In names and notes the source's numbering stands.

B1: 24D12.2H9: anti-Gal3 monoclonal antibody (antibody, V domains shown)
VH: QVQLKQSGPGLVQPSQSLSITCTVSGFSLTSYGVHWVRQAPGKGLEWLGVIWSGGSTDYNAAFMSRLSISKDNSKSQVFFKMNSLQADDTAIYYCAKSPDGYDVAWFGYWGQGTLVTVSA
VL: DIVMTQSHKFMSTSVGDRVSITCKASQDVRTAVAWYQQKPGQSPKLLIYWASTRHTGVPDRFTGSGSGTDFTLTLSNVQSEDLADYFCQQYSSYPWTFGGGTKLEIK
B2: F846C.1F5: anti-Gal3 antibody (antibody, V domains shown)
VH: QIQLVQSGPELKKPGETVKISCKASGYTFTNYGMNWVKQAPGKGLKWMGWINTYTGEPSYADDFKGRFAFSLETSASTAYLQINNLKNEDMATYFCARWGGYDGDYYAMDYWGQGTSVTVSS
VL: NIMMTQSPSSLAVSAGEKVTMSCKSSQSVLYSSNQKNYLAWYQQKPGQSPKLLIYWASTRESGVPDRFTGSGSGTDFTLTISSVQPEDLAVYYCHQYLSSLTFGAGTKLELK
B3: 13G4.2F8: anti-Gal3 monoclonal antibody (antibody, V domains shown)
VH: QVQLQQPGAELVKPGASVKLSCKASGYTFTSYWMHWVKQRPGQGLEWIGMIHPNSGSTDYNEKFKNKATLNVDKSSSTAYIQLSSLTSEDSAVYYCTRWGIYYYARDYWGQGTTLTVSS
VL: DIVMTQSQKFMSTSVGERVSITCKASQNVGTNVAWYQQKAGQSLELLIYGASNRHTGVPDRFTGSGSGTDFTLTITNVQSEDMTNYFCEQYSNFPLTFGAGTKLELK
B4: 15F10.2D6: anti-Gal3 monoclonal antibody (antibody, V domains shown)
VH: EVQLVESGGGLVKPGGSLKLSCAASGFAFSSYAMSWVRQTPEKRLEWVATISDGGVYTYYTDHVKGRFTISRDNAEDNLYLQMSHLKSEDTAMYYCVRDGGYWGQGTTLTVSS
VL: DVLMTQTPLSLPVSLGDQASISCRSSQSIVHNNGNTYLEWYLQKPGQSPKLLIYKVSNRFSGVPDRFSGSGSGTDFTLKISRVEAEDLGVYYCFQGSHVPLTFGGGTKLELK
B5: F846TC.14A2: anti-Gal3 antibody (antibody, V domains shown)
VH: QIQLVQSGPELKKPGETVKISCKASGYTFTNYGMNWVKQAPGKGLKWMGWINTYTGEPTYAGDLKGRFAFSLETSASTAYLQINNLKNEDTATYFCVRYTMDYWGQGTSVTVSS
VL: QAVVTQESALTTSPGETVTLTCRSSTGAVTTSNYANWVQEKPDHLFTGLIGGINNRVPGVPARFSGSLIGDKAALTITGAQTEDEAIYFCALWYSNHWVFGGGTKLTVL
B6: 2D10.2B2: anti-Gal3 monoclonal antibody (antibody, V domains shown)
VH: QVQLQQSGPELVKPGASVKISCKASGYTFTDYYINWVKQRPGQGLEWIGWIYPGSNDTKYNEKFKGKATLTVDTSSSTAYMQLGSLTSEDSAVYFCANYFGCSGWFFDVWGTGTTVTVSS
VL: DIVMTQAAFSNPVTLGTSASISCRSSKSLLHSDGITYLYWYLQRPGQSPQLLIYRMSNLASGVPDRFSGSGSGTDFTLRISRVEAEDVGVYYCAQMIEFPLTFGAGTILELK
B7: 4A11.2B5: anti-Gal3 monoclonal antibody (antibody, V domains shown)
VH: QVQLQQSGPELVKPGASVKISCKASGYSFTNYYIHWVKQRPGQGLEWIGWIYPGSGNTNYNEKFKGKATLTADTSSSTTNMQLSSLTSEDSAVYYCSTAPGGFDVWGSGTTVTVSS
VL: B6 VL with I97L, I108K

Key:
[1] = target: T1, interaction of Gal3 and INSR (Homo sapiens, UniProt P17931); assay: ELISA of blocking of Gal3-INSR association by Gal3-binding antibodies
T1 construct: 6-histidine tag (linker-spaced); purchased Acro Biosystems (Gal3); Sino Biological (INSR) GA3-H5129; 11086-H08H
T1 sequence (P17931 2-250 limits assumed): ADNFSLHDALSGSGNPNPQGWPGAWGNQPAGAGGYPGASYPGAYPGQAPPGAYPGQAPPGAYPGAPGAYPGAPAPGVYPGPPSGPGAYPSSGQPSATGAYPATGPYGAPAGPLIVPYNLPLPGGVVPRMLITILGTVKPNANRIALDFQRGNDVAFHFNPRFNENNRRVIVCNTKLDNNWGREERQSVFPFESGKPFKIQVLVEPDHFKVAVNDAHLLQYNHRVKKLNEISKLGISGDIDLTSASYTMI
Method: Positively scoring wells were evaluated for the ability to block association of Gal3 and INSR. To identify Gal3-targeted antibodies with the ability to block the interaction of Gal3 and INSR, purified Gal3 and INSR proteins were incubated in the presence of Gal3-immunization hybridoma supernatants described above, or without antibody, and protein interaction was evaluated by ELISA. Human Galectin-3 protein (Acro Biosystems, GA3-H5129) was diluted in PBS (Corning, 21-030-CM) to a concentration of 3 μg/ml and added to the wells of a 96-well ELISA plate (Thermo Fisher, 44-2404-21). After incubating the plate at 4° C. overnight, the plate was washed three times with PBST (PBS with 0.05% Tween 20 [VWR, 0777]). The plate was then blocked for an hour with 2% BSA (EMD Millipore, 126609) in PBST at room temperature with gentle rocking. Thereafter, the 2% BSA in PBST was discarded and antibody or inhibitor (3-fold dilutions beginning at 20 μg/ml, 60 μg/ml, or 180 μM) in 2% BSA in PBST was added to the wells. Afterwards, 6 μg/ml of human Insulin Receptor (Sino Biological, 11086-H08H) in 2% BSA in PBST was added to the antibody or inhibitor in the wells in a 1:1 ratio. The plate was incubated for an hour at room temperature with gentle rocking. Thereafter, the plate was washed three times with PBST, and 0.3 μg/ml of human INSR Biotinylated Antibody (R&D Systems, BAF1544) in 2% BSA in PBST was added to the wells. The plate was incubated for an hour with gentle rocking and then washed three times with PBST. Avidin-HRP (1:2000) was then added to the wells. The plate was incubated at room temperature for an hour with gentle rocking and then washed three times with PBST. TMB substrate (Thermo Scientific, 34029) was then added to each well. The reaction was stopped with 1M HCl (JT Baker, 5620-02) and read using a plate reader (Molecular Devices) at absorbance of 450 nm.

[2] = tested on: Gal3 peptides (SEQ ID NOs: 3-26); assay: Gal3 peptide library binding ELISA (epitope mapping); parameters: species or system human
Method: (§1) To identify the epitopes to which Gal3 antibodies with and without Gal3-INSR blocking activity bound, a library of 24 amino acid peptides representing portions of Gal3, depicted in FIG. 27, was produced and the ability of each peptide to bind Gal3 antibodies was evaluated by ELISA. At least 2 μg/ml of hGal3 peptide in 50 μl of PBS or 0.1 μg/ml of full-length human Gal3 protein (GenScript) and human Galectin-3 protein (Acro Biosystems, GA3-H5129) were diluted in PBS (Corning, 21-030-CM) to concentrations of at least 2 μg/ml or 0.1 μg/ml, respectively, and added to the wells of a 96-well ELISA plate (Thermo Fisher, 44-2404-21). After incubating the plate at 4° C. overnight, the plate was washed three times with PBST (PBS with 0.05% Tween 20 [VWR, 0777]). The plate was then blocked for an hour with 2% BSA (EMD Millipore, 126609) in PBST at room temperature with gentle rocking. Thereafter, the 2% BSA in PBST was discarded and human Galectin-3 hybridoma supernatants or antibodies were diluted in 2% BSA in PBST to concentrations of at least 0.1 μg/ml and added to the wells. The plate was incubated for an hour at room temperature with gentle rocking and then washed three times with PBST. Afterwards, Goat Anti-Mouse IgG-HRP (Jackson ImmunoResearch, 115-036-1461) or Goat Anti-Rat IgG HRP (Abcam, ab205720) diluted in 2% BSA in PBST (1:4000) were added to the wells. The plate was incubated for 30 minutes to 1 hour at room temperature with gentle rocking and then washed three times with PBST. TMB substrate (Thermo Scientific, 34029) was then added to each well. The reaction was stopped with 1M HCl (JT Baker, 5620-02) and read using a plate reader (Molecular Devices) at absorbance of 450 nm.
(§2) Human Gal3 peptides (LifeTein, custom order) and human Gal3 proteins (R&D Systems, 8259-GA; TrueBinding, QCB200349) were diluted in PBS (Corning, 21-030-CM) to concentrations of at least 100 μg/mL (peptides) or 1 μg/mL (proteins), and added to the wells of several 96-well ELISA plates (Thermo Fisher, 44-2404-21). After incubating the plates at 4° C. overnight, the plates were washed three times with PBST (PBS with 0.05% Tween 20 [VWR, 0777]). The plates were then blocked for an hour with 2% BSA (EMD Millipore, 126609) in PBST at room temperature with gentle rocking. Thereafter, the 2% BSA in PBST was discarded and Gal3-binding antibodies (reformatted hIgG4 [S228P]) were diluted in 2% BSA in PBST to concentrations of 5 μg/mL and added to the wells. The plates were incubated for an hour at room temperature with gentle rocking and then washed three times with PBST. Afterwards, Peroxidase AffiniPure F(ab′)2 Fragment Goat Anti-Human IgG (H+L) polyclonal antibody (Jackson ImmunoResearch, 109-036-003), was diluted in 2% BSA in PBST (1:4000) and added to the wells. The plates were incubated for 1 hour at room temperature with gentle rocking and then washed three times with PBST. TMB substrate (Thermo Scientific, 34029) was then added to each well. The reaction was stopped with 1M HCl (JT Baker, 5620-02) and read using a plate reader (Molecular Devices) at absorbance of 450 nm.

[3] = target: T2, Gal3 peptides (SEQ ID NOs: 3-26) (Homo sapiens, UniProt P17931); assay: as above; conditions: for binding to Gal3 Peptide 6: Peptide 6 (SEQ ID NO: 8), amino acids 51-70 of Gal3; for binding to Gal3 Peptide 7: Peptide 7 (SEQ ID NO: 9), amino acids 61-80 of Gal3; for binding to Gal3 Peptide 1: Peptide 1 (SEQ ID NO: 3), amino acids 1-20 of Gal3
T2 construct: a library of 24 amino acid peptides representing portions of Gal3; purchased LifeTein custom order
Method: as §1, §2

human Gal3 = target: T3, human Gal3 (Homo sapiens, UniProt P17931); assay: Antibody binning assays (competition for binding to Gal3); conditions: binning per Examples 3 and 18
T3 construct: His; purchased AcroBio GA3-H5129
T3 sequence (P17931 whole entry): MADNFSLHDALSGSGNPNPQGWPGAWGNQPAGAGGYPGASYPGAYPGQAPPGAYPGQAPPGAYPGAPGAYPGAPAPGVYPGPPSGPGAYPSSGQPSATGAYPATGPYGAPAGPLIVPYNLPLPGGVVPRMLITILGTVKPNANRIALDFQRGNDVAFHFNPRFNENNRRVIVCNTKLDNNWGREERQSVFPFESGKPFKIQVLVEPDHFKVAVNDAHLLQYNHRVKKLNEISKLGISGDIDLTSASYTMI
Method: To determine whether Gal3-binding antibodies with Gal3-INSR blocking activity bind to the same or overlapping regions of the Gal3 molecule, antibody binning assays were performed to assess the ability of antibodies to simultaneously bind Gal3. Amine-reactive probes were loaded onto a Gator biosensor (Probe Life, Palo Alto, Calif.), equilibrated in dH20 for 60 seconds, dipped into 100 μl EDC 0.2M/NHS 0.05M activation buffer for 30 seconds, then dipped into a solution of […] human Gal3-His in 10 mM NaOAc buffer, pH 5 until binding was saturated, and quenched in 1 M ethanolamine pH 8.5 for 300 seconds. Following Gal3-His loading, tips were dipped in 20 μg/mL saturating antibody, then successively dipped into 5 μg/mL competing antibody.
The epitope binning assay was done in a sandwich format on the high-throughput SPR-based Carterra LSA unit (CarterraBio, Salt Lake City, Utah). First, the purified antibodies were diluted to 10 μg/ml concentration in 10 mM NaOAc (pH 5.0) and then were covalently coupled via amine group to HC200M chip activated by EDC and S-NHS to immobilize antibodies to different positions of a 384-spot array. One hundred thirty-eight binning cycles were run on the array of immobilized antibodies. In each cycle, first, human Gal3 (AcroBio GA3-H5129) was injected over the entire array to bind to different antibodies (primary antibody), followed by one antibody (secondary antibody) selected among the panel of 150 anti-GAL3 antibodies tested. At the end of each cycle, the array was regenerated by 10 mM Glycine (pH 2.0) to remove bound antigen and secondary antibody from the array. The data analysis was done using the Epitope software by CarterraBio.

Molecule	binding to Gal3 Peptide 6 [3]	epitope bin (competitive binding to Gal3) (human Gal3)	binding to Gal3 Peptide 7 [3]	other results
B1				Gal3-INSR blocking activity (in words) [1]: poorly block
B2	bind and bound			binding to Gal3 Peptide 17 ([2]; Peptide 17 (SEQ ID NO: 19)): bind
B3				Gal3-INSR blocking activity (in words) [1]: poorly block
B4		bin 8	bind and bound	binding to Gal3 Peptide 2 ([3]; Peptide 2 (SEQ ID NO: 4)): bind; binding to Gal3 Peptide 3 ([3]; Peptide 3 (SEQ ID NO: 5)): bind; binding to Gal3 Peptide 4 ([3]; Peptide 4 (SEQ ID NO: 6), amino acids 31-50 of Gal3): bind
B5			bind and bound	binding to Gal3 Peptide 8 ([2]; Peptide 8 (SEQ ID NO: 10)): bind; binding to Gal3 Peptide 1 [3]: bind and bound
B6	bind and bound	bin 3	bound	binding to Gal3 Peptide 1 [3]: bound
B7	bind and bound	bin 3		
